Data set [1] deals with Cys149 (position 149, …). In words: chemical modification. The following applies: 25 °C; not stated (10 mM buffers); 10 mM sodium acetate (pH 4-5), 10 mM MES (pH 5.5-6.5), 10 mM Tris/HCl (pH 7-9); Native reduced enzyme at 2.8 uM, with no substrate or NAD+ added. Cofactor occupancy is not stated.
Data set [2] concerns the target Cys149. The following applies: cited from earlier work.
Data set [3] deals with Cys149 (UniProt position 150, …). The following applies: cited from earlier work.

Results on 3 proteins are retold here after article PMC6325607.

The term pKa denotes the negative logarithm of the acid dissociation constant.

B1: Glyceraldehyde-3-phosphate dehydrogenase GapA (CbGAPDH) (Citrobacter sp. S-77) (protein)
chain: TIKVGINGFGRIGRIVFRAAQERSDIEIVAINDLLDADYMAYMLKYDSTHGRFNGSVEVKDGHLIVNGKKIRVTAERDPANLKWDEVGVDVVAEATGLFLTDETARKHITAGAKKVVLTGPSKDNTPMFVKGANFDKYEGQDIVSNASCTTNCLAPLAKVINDNFGIIEGLMTTVHATTATQKTVDGPSHKDWRGGRGAAQNIIPSSTGAAKAVGKVLPELNGKLTGMAFRVPTPNVSVVDLTVRLEKAASYEEIKKAIKAASEGPMKGVLGYTEDDVVSTDFNGEVCTSVFDAKAGIALNDNFVKLVSWYDNETGYSNKVLDLIAHISK
In the case of B1, the pKa in data set [1] is on record as 5.82 ± 0.05.

B2: Glyceraldehyde-3-phosphate dehydrogenase (GAPDH) (Geobacillus stearothermophilus (Bacillus stearothermophilus)) (protein)
chain: AVKVGINGFGRIGRNVFRAALKNPDIEVVAVNDLTDANTLAHLLKYDSVHGRLDAEVSVNGNNLVVNGKEIIVKAERDPENLAWGEIGVDIVVESTGRFTKREDAAKHLEAGAKKVIISAPAKNEDITIVMGVNQDKYDPKAHHVISNASCTTNCLAPFAKVLHEQFGIVRGMMTTVHSYTNDQRILDLPHKDLRRARAAAESIIPTTTGAAKAVALVLPELKGKLNGMAMRVPTPNVSVVDLVAELEKEVTVEEVNAALKAAAEGELKGILAYSEEPLVSRDYNGSTVSSTIDALSTMVIDGKMVKVVSWYDNETGYSHRVVDLAAYIASKGL
In the case of B2, the pKa in data set [2] is recorded as 5.92.

B3: Glyceraldehyde-3-phosphate dehydrogenase A (GAPDH) (Escherichia coli) (protein)
chain: TIKVGINGFGRIGRIVFRAAQKRSDIEIVAINDLLDADYMAYMLKYDSTHGRFDGTVEVKDGHLIVNGKKIRVTAERDPANLKWDEVGVDVVAEATGLFLTDETARKHITAGAKKVVMTGPSKDNTPMFVKGANFDKYAGQDIVSNASCTTNCLAPLAKVINDNFGIIEGLMTTVHATTATQKTVDGPSHKDWRGGRGASQNIIPSSTGAAKAVGKVLPELNGKLTGMAFRVPTPNVSVVDLTVRLEKAATYEQIKAAVKAAAEGEMKGVLGYTEDDVVSTDFNGEVCTSVFDAKAGIALNDNFVKLVSWYDNETGYSNKVLDLIAHISK
Consider B3, for which the pKa in data set [3] was 5.70.
